According to patent US20120219567A1 (Biogen, published 2012):
Where a chain is given by its changes, count along the chain named.

T1: human NgR mutant 163 (mutated to alanine) (human, UniProt Q9BZR6 27-445)
T1 sequence: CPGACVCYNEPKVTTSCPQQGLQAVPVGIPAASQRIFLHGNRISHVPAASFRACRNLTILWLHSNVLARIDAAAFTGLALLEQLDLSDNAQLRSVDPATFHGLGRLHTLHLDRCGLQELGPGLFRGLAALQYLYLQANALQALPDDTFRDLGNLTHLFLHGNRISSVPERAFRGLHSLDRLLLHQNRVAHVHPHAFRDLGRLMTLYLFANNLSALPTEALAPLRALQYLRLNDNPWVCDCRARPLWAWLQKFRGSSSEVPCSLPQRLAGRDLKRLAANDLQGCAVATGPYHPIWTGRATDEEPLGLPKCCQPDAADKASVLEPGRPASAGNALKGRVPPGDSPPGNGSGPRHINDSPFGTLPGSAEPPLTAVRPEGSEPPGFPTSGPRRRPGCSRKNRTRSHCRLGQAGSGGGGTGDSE

B1: human NgR mutant 158, 160 (mutated to alanine) (receptor)
chain: T1 sequence with Y132A, Y134A, A137D
B2: human NgR mutant 182, 186 (mutated to alanine) (receptor)
chain: T1 sequence with A137D, H156A, H160A
B3: human NgR mutant 67, 68, 71 (mutated to alanine) (receptor)
chain: T1 sequence with N41A, R42A, H45A, A137D
B4: human NgR mutant 111, 113, 114 (mutated to alanine) (receptor)
chain: T1 sequence with D85A, S87A, D88A, A137D
B5: human NgR mutant 111, 113, 114, 138 (mutated to alanine) (receptor)
chain: T1 sequence with D85A, S87A, D88A, D112A, A137D
B6: human NgR mutant 232, 234 (mutated to alanine) (receptor)
chain: T1 sequence with A137D, Y206A, F208A
B7: human NgR mutant 87, 89, 133, 136 (mutated to alanine) (receptor)
chain: T1 sequence with W61A, H63A, H107A, H110A, A137D
B8: human NgR mutant 189, 191, 211, 213 (mutated to alanine) (receptor)
chain: T1 sequence with A137D, R163A, S165A, Q185A, R187A
B9: human NgR mutant 182, 186, 158, 160 (mutated to alanine) (receptor)
chain: T1 sequence with Y132A, Y134A, A137D, H156A, H160A
B10: human NgR mutant 67, 68, 71, 89, 90, 92 (mutated to alanine) (receptor)
chain: T1 sequence with N41A, R42A, H45A, H63A, S64A, V66A, A137D
B11: human NgR mutant 182, 186, 210 (mutated to alanine) (receptor)
chain: T1 sequence with A137D, H156A, H160A, H184A
B12: human NgR mutant 133, 136 (mutated to alanine) (receptor)
chain: T1 sequence with H107A, H110A, A137D
B13: human NgR mutant 82, 179 (mutated to alanine) (receptor)
chain: T1 sequence with N56A, A137D, N153A
B14: human NgR mutant 211, 213 (mutated to alanine) (receptor)
chain: T1 sequence with A137D, Q185A, R187A
B15: human NgR mutant 211, 213, 237, 256, 259, 284 (mutated to alanine) (receptor)
chain: T1 sequence with A137D, Q185A, R187A, N211A, R230A, D233A, E258A
B16: AP-Nogo-66 (ligand, UniProt Q9NQC3 1055-1120, looked up)
chain: RIYKGVIQAIQKSDEGHPFRAYLESEVAISEELVQKYSNSALGHVNCTIKELRRLFLVDDLVDSLK
notes: domain: Nogo-66; also called AP-Ng-66; Nogo-66 ligand; not shown: alkaline phosphatase (AP) moiety
B17: human NgR mutant 171, 172, 175, 176, 196, 199, 220, 223, 224, 250 (mutated to alanine) (receptor)
chain: CPGACVCYNEPKVTTSCPQQGLQAVPVGIPAASQRIFLHGNRISHVPAASFRACRNLTILWLHSNVLARIDAAAFTGLALLEQLDLSDNAQLRSVDPATFHGLGRLHTLHLDRCGLQELGPGLFRGLAALQYLYLQDNALQALPAATFAALGNLTHLFLHGNRISSVPEAAFAGLHSLDRLLLHQNRVAHVHPAAFAALGRLMTLYLFANNLSALPTEALAPLAALQYLRLNDNPWVCDCRARPLWAWLQKFRGSSSEVPCSLPQRLAGRDLKRLAANDLQGCAVATGPYHPIWTGRATDEEPLGLPKCCQPDAADKASVLEPGRPASAGNALKGRVPPGDSPPGNGSGPRHINDSPFGTLPGSAEPPLTAVRPEGSEPPGFPTSGPRRRPGCSRKNRTRSHCRLGQAGSGGGGTGDSE
notes: Label runs over two printed rows (r20c1 and r21c1)

Key:
[1] = target: B16; assay: AP-ligand binding to transfected COS-7 cells
Description: (§1) In order to probe the NgR domains that interact with Aβ and Nogo-66, a strategy based on the crystal structure of NgR was employed. A number of human NgR surface-accessible residues were mutated to Ala either individually or as groups of adjacent residues (Table 3), and resultant ligand binding characteristics were assessed. The ligand concentrations were AP, 30 nM, AP-Nogo-66, 5 nM, AP-Aβ(1-28), 50 nM. NgR mutagenesis has been previously described. Hu et al., J Neurosci 25:5298-5304 (2005); Fournier et al., J Neurosci 23:1416-1423 (2003). The expression of each mutant NgR protein was verified by immunohistochemical detection at the surface of cells transfected with expression vector (FIG. 2a). Bound AP was stained and measured using NIH image software. Mutants of human NgR were detected on the surface of transfected COS-7 immunofluorescently. For each of the mutants with altered binding characteristics, expression of immunoreactive NgR protein with electrophoretic mobility similar to wild type was also confirmed by immunoblot (FIG. 2c). Whole COS-7 cell lysates expressing NgR mutants were subjected to SDS-PAGE and blotted with anti-NgR antibodies. The mobility of each mutant was indistinguishable from wild type NgR, except for the mutations in N-linked glycosylation sites (N82 and N179). The binding of both AP-Aβ(1-28) and AP-Nogo-66 ligands to cells expressing this collection of NgR mutant proteins was assessed at concentrations equal to the predetermined Kd's of the ligands (FIG. 2b, d).

[2] = target: T1, human NgR mutant 163 (mutated to …); assay: AP-ligand binding to transfected COS-7 cells
Description: as §1

Row | binding result [1] | binding result [2] | Binder
1 | no binding (tested: 5 nM) | – | B1
2 | no binding (tested: 5 nM) | – | B2
3 | no binding (tested: 5 nM) | – | B3
4 | no binding (tested: 5 nM) | – | B4
5 | no binding (tested: 5 nM) | – | B5
6 | no binding (tested: 5 nM) | – | B6
7 | no binding (tested: 5 nM) | – | B7
8 | no binding (tested: 5 nM) | – | B8
9 | no binding (tested: 5 nM) | – | B9
10 | no binding (tested: 5 nM) | – | B10
11 | no binding (tested: 5 nM) | – | B11
12 | no binding (tested: 5 nM) | – | B12
13 | no binding (tested: 5 nM) | – | B13
14 | no binding (tested: 5 nM) | – | B14
15 | no binding (tested: 5 nM) | – | B15
16 | – | no binding (tested: 5 nM) | B16
17 | no binding (tested: 5 nM) | – | B17
